The assay concerns the target Komagataella phaffii Ero1 (Komagataella phaffii) (UniProt F2QNN1).
UniProt F2QNN1, sequence (F2QNN1 entry or part of it): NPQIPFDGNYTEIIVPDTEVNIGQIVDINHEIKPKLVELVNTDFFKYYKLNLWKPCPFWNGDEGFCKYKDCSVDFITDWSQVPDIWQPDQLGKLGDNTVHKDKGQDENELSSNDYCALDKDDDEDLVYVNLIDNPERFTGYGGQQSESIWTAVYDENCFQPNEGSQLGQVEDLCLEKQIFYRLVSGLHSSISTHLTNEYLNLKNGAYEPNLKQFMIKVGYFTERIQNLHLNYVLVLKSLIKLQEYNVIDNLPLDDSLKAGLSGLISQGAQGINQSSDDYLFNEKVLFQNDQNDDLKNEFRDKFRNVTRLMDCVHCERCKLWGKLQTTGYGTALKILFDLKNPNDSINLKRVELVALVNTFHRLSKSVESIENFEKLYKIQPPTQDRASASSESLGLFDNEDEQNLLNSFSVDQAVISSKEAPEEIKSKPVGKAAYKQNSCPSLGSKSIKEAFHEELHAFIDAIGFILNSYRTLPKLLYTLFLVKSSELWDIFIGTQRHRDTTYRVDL

Turning to “Komagataella phaffii Erp41, full length, purified (enzyme)”, the K M PDI for Erp41 as substrate of 1 μM Ero1–Pdi1 complex, oxygen consumption assay (titration of Erp41, 10 mM GSH) turned out to be 7.07 µM and the kcat of oxygen consumption, 1 μM Ero1–Pdi1 complex plus 10 μM Erp41 came out at 1.95 s⁻¹.

The record behind these values is PMC10938136.
